From paper PMC3140604

What was measured:
[1] = substrate: O=C(O)C(Cl)Cl; assay: cells, lysate or membranes; type: cell-based, Homo sapiens; conditions: Na+ competes with nicotinate for uptake via SLC5A8
[2] = substrate: CC(=O)O; assay: cells, lysate or membranes; type: cell-based, Homo sapiens; conditions: Na+ competes with nicotinate for uptake via SLC5A8

B1: SLC5A8 (Homo sapiens) (protein)
chain: MDTPRGIGTFVVWDYVVFAGMLVISAAIGIYYAFAGGGQQTSKDFLMGGRRMTAVPVALSLTASFMSAVTVLGTPSEVYRFGAIFSIFAFTYFFVVVISAEVFLPVFYKLGITSTYEYLELRFNKCVRLCGTVLFIVQTILYTGIVIYAPALALNQVTGFDLWGAVVATGVVCTFYCTLGGLKAVIWTDVFQVGIMVAGFASVIIQAVVMQGGISTILNDAYDGGRLNFWNFNPNPLQRHTFWTIIIGGTFTWTSIYGVNQSQVQRYISCKSRFQAKLSLYINLVGLWAILTCSVFCGLALYSRYHDCDPWTAKKVSAPDQLMPYLVLDILQDYPGLPGLFVACAYSGTLSTVSSSINALAAVTVEDLIKPYFRSLSERSLSWISQGMSVVYGALCIGMAALASLMGALLQAALSVFGMVGGPLMGLFALGILVPFANSIGALVGLMAGFAISLWVGIGAQIYPPLPERTLPLHLDIQGCNSTYNETNLMTTTEMPFTTSVFQIYNVQRTPLMDNWYSLSYLYFSTVGTLVTLLVGILVSLSTGGRKQNLDPRYILTKEDFLSNFDIFKKKKHVLSYKSHPVEDGGTDNPAFNHIELNSDQSGKSNGTRL
For B1, the Km [1] was 36 ± 7 µM and the Km [2] was 1600 ± 100 µM.
